The source of these data is PMC8891189, “Hydroxycinnamoyltransferase and CYP98 in phenolic metabolism in the rosmarinic acid-producing hornwort Anthoceros agrestis” (Planta, 2022).

Substrate in data set [1]: O=C(/C=C/c1ccc(O)cc1)NCCc1ccc(O)cc1
As to the kind of experiment: HPLC product assay, Michaelis-Menten fit. The data set is classed as biochemical, Anthoceros agrestis. As to conditions: co-substrate NADPH, with Coleus blumei CPR, pH 7.0, 30 °C, crude extract.

Substrate in data set [2]: O=C(/C=C/c1ccc(O)cc1)Nc1c(O)cccc1C(=O)O
As to the kind of experiment: HPLC product assay, Michaelis-Menten fit. The data set is classed as biochemical, Anthoceros agrestis. As to conditions: co-substrate NADPH, with Coleus blumei CPR, pH 7.0, 30 °C, crude extract.

Substrate in data set [3]: O=C(/C=C/c1ccc(O)cc1)Nc1ccccc1C(=O)O
As to the kind of experiment: HPLC product assay, Michaelis-Menten fit. The data set is classed as biochemical, Anthoceros agrestis. As to conditions: co-substrate NADPH, with Coleus blumei CPR, pH 7.0, 30 °C, crude extract.

Substrate in data set [4]: O=C(O)C1=C[C@@H](O)[C@@H](O)[C@H](O)C1
Briefly: cells, lysate or membranes. The following applies: co-substrate p-coumaroyl-CoA, pH 7.0, 30 °C, crude extract.

Substrate in data set [5]: CC(C)(COP(=O)(O)OP(=O)(O)OC[C@H]1O[C@@H](n2cnc3c(N)ncnc32)[C@H](O)[C@@H]1OP(=O)(O)O)[C@@H](O)C(=O)NCCC(=O)NCCSC(=O)/C=C/c1ccc(O)c(O)c1
Briefly: HPLC product assay, Michaelis-Menten fit. The data set is classed as biochemical, Anthoceros agrestis. The following applies: co-substrate shikimic acid, pH 7.0, 30 °C, crude extract, pH 7.0.

Substrate in data set [6]: CC(C)(COP(=O)(O)OP(=O)(O)OC[C@H]1O[C@@H](n2cnc3c(N)ncnc32)[C@H](O)[C@@H]1OP(=O)(O)O)[C@@H](O)C(=O)NCCC(=O)NCCSC(=O)/C=C/c1ccc(O)cc1
Briefly: HPLC product assay, Michaelis-Menten fit. The data set is classed as biochemical, Anthoceros agrestis. As to conditions: co-substrate shikimic acid, pH 7.0, 30 °C, crude extract, pH 7.0.

Substrate in data set [7]: Nc1c(O)cccc1C(=O)O
Briefly: HPLC product assay, Michaelis-Menten fit. The following applies: co-substrate p-coumaroyl-CoA, pH 9.0, 30 °C, crude extract, amide formed, pH 9.0. The data set is classed as biochemical, Anthoceros agrestis.

Substrate in data set [8]: O=C(O)c1cccc(O)c1O
Briefly: HPLC product assay, Michaelis-Menten fit. The data set is classed as biochemical, Anthoceros agrestis. The following applies: co-substrate p-coumaroyl-CoA, 30 °C, crude extract, ester formed.

B1: AaCYP98 (CYP98A147; coAaCYP98 + CbCPR) (Anthoceros agrestis) (protein)
chain: MAELVVRAVLALIAVAVAAGFLFYRARWSRYKLPPGPKPRLFVGNLLDVTAVRFKCFEQWAKVYGPVMSVWMGATLNVVVSSAEGAKEVLKDKDQSLAARARSRAAAKFSRDGQDLIWADYGPHYVKVRKVCNVELFTPKRLEALRPIRQDEVSAMVHKIHRDAPKGPVNPKKYLSAMAFNNITRLAFGKRFVDDEGKIDSQGVEFKEVIGQGMKLGASLKISEHIPSIRWMFPLQNEEFAKHGARRDTLTRTIMKEHAALRETLGPQSHFVDALLGLQKQYDLSETTIIGLLWDMVTAGMDTVAITVEWALAELIRNPEVQRKAQEELDAVVGDETVLTEAHFSKLPYLTALTKESLRLHPPTPLMLPHKCTEDVKIQGYDIPKGTVVHCNIYVIARDPAVWKEPLAFRPERFLEQDVDIKGHDFRLLPFGAGRRVCPGAQLGLNMVQLMIGRLLHQFSWSPPEGVRAEDISLEERSGIVTYMAKSLEAVATPRLPQALYARNV
notes: with NADPH--cytochrome P450 reductase (Coleus blumei)
Usually Km stands for the concentration of substrate that gives half-maximal velocity. Take B1: the Km in data set [1] is given as 36.3 ± 3.6 µM; in data set [2], 9.3 ± 0.7 µM; in data set [3], 6.4 ± 0.8 µM.

B2: AaHCT6 (Anthoceros agrestis) (protein)
chain: MKVSIKKETMVPPAEETPQVALWASNVDLIIPQIHTSSVYFYRPSGSPDFFSGDVLRDALAKALVPFYPMAGRLARDQDGRIQINCNAAGVLLVEAEADVSIDDLGGFAPHPVLQQLVPTVVYTKDITAFPLLVLQVTRFKCGGASLGVGMEHHIADGTSGIHFINTWSDVARGEGVKVLPFVDRTLLRARSPPTPQFEHVEYQTPFTLQPRFRPEEGSEKVETVVESFTFSREQLGKLKAMVADPGANLAYSSYVALSAHIWRCATRARGLSGDQPSKLFVATDGRARLRPPLPRGYFGNVIFTCTPVAEAEELVAKPLIRTAARIQEAVLKMGDEYLRSALDYLELLPDMSVCIRGAAHFGNPNLCITSWSGLPVYDCDFGWGRAIHMGPCQIGFEGLCFVLGSATKDGSLGLALRLRADHMADFRKLVNDI
Regarding B2, the Km in data set [4] came to 24.6 ± 10.4 µM; in data set [5] it was 19.2 ± 16.2 µM; in data set [6], 14.4 ± 1.4 µM; in data set [7], 153.1 ± 33.8 µM; in data set [8], 1025.9 ± 59.7 µM.
